From US20190330296A1

Target: human GLP-1 receptor (human) (UniProt P43220)
Assay: cell-based or functional assay

Sequence of human GLP-1 receptor (human) (P43220 24-463): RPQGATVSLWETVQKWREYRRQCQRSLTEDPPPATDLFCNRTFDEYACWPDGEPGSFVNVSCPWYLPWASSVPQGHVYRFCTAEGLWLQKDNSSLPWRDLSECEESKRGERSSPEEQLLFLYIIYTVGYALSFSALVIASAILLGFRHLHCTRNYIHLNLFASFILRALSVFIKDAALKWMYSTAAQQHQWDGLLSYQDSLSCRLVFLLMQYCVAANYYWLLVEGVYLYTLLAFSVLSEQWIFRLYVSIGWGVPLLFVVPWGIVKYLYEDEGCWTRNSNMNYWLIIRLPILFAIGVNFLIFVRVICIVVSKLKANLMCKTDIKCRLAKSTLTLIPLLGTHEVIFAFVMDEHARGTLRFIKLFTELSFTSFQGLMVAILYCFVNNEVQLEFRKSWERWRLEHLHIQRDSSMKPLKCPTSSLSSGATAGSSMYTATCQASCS

Human GLP1R EC50: 0.035 nM
Substance: Dulaglutide (Fc fusion)
